Data taken from the RNAGym collection of RNA variant scans (doi:10.7554/elife.80360).

B1: Twister Ribozyme (parent)
chain: AACACUGCCAAUGCCGGUCCCAAGCCCGGAUAAAAGUGGAGGGGGCGG

Variants of: B1
Experiment: self-cleavage, relative activity (ratio to wild type); higher = more cleavage; co-transcriptional

Going from A22G A40U to A22G A40G, the self-cleavage rises from 0.138 to 0.588.

First: A22G C46U
Second: A22G A23G
The self-cleavage of the first is higher: 0.286 for the first, 0.0844 for the second.

Compared with A22U C25U, C20G G45U is lower in self-cleavage: 0.513 for the first, 0.0778 for the second.

First: C20G G45A
Second: A22G A30C
The self-cleavage of the first is lower: 0.102 for the first, 0.111 for the second.

First: A23C G48C
Second: C21A C26G
The self-cleavage of the first is higher: 0.211 for the first, 0.0786 for the second.

Going from A22C G42C to A22C G42A, the self-cleavage falls from 0.237 to 0.215.

First: C21A A30C
Second: C21A A30U
The self-cleavage of the first is lower: 0.079 for the first, 0.152 for the second.

First: C21A G39C
Second: C21U U31G
The self-cleavage of the first is higher: 0.116 for the first, 0.115 for the second.

Compared with A23C C27A, A23C C27G is lower in self-cleavage: 0.0984 for the first, 0.0848 for the second.

First: C20U G38U
Second: C21A G48C
The self-cleavage of the first is higher: 0.742 for the first, 0.171 for the second.

Going from A22C G43U to C21G G41A, the self-cleavage falls from 0.273 to 0.159.

Going from C21U C25G to C21U C25A, the self-cleavage falls from 0.0992 to 0.061.

First: A22U A33U
Second: A22U A33C
The self-cleavage of the first is lower: 0.698 for the first, 0.737 for the second.

Going from C21U A35G to C21U A35C, the self-cleavage rises from 0.108 to 0.154.

First: C21A G45A
Second: C21A G45C
The self-cleavage of the first is higher: 0.114 for the first, 0.109 for the second.

First: C21A G45U
Second: A22U A23G
The self-cleavage of the first is higher: 0.121 for the first, 0.0873 for the second.

Compared with A22U G43C, A22G G48A is higher in self-cleavage: 0.129 for the first, 0.246 for the second.

First: A22G G48C
Second: A23C A32U
The self-cleavage of the first is higher: 0.318 for the first, 0.241 for the second.

First: A22U G39U
Second: A22U G39C
The self-cleavage of the first is lower: 0.0706 for the first, 0.115 for the second.

First: C20U A22C
Second: A23G C46U
The self-cleavage of the first is higher: 1.01 for the first, 0.579 for the second.

Going from A23G C46G to C21A G36A, the self-cleavage falls from 0.405 to 0.0703.

Compared with C21G G48A, A22C A23C is higher in self-cleavage: 0.146 for the first, 0.148 for the second.

Going from A22C A23G to C20U G28U, the self-cleavage rises from 0.341 to 0.906.

First: C20U G45A
Second: C20U G45C
The self-cleavage of the first is higher: 0.838 for the first, 0.425 for the second.

Compared with A22G A33G, A22G A33U is lower in self-cleavage: 0.255 for the first, 0.237 for the second.

First: A22U A34G
Second: A23C G47A
The self-cleavage of the first is higher: 0.535 for the first, 0.127 for the second.

First: A23C G47U
Second: C21U G39U
The self-cleavage of the first is higher: 0.145 for the first, 0.0656 for the second.

Going from C21U G39C to C21A G24U, the self-cleavage falls from 0.114 to 0.0879.

Going from C21U G47U to A22C C27U, the self-cleavage rises from 0.109 to 0.901.

First: C21G C46A
Second: C21G C46G
The self-cleavage of the first is higher: 0.115 for the first, 0.113 for the second.

Going from A22C U37C to C21U G42C, the self-cleavage falls from 0.624 to 0.118.

Compared with A22U G42A, C21A G44U is lower in self-cleavage: 0.126 for the first, 0.108 for the second.

First: C21A G44A
Second: C21A A23C
The self-cleavage of the first is higher: 0.113 for the first, 0.109 for the second.

First: C21A A23G
Second: C21A G42U
The self-cleavage of the first is lower: 0.0801 for the first, 0.0873 for the second.

First: C21A G42A
Second: C21A G42C
The self-cleavage of the first is lower: 0.0769 for the first, 0.15 for the second.

Going from C21U G44U to C21U A30G, the self-cleavage rises from 0.0882 to 0.097.

Compared with A23C G38C, A22C G28U is higher in self-cleavage: 0.219 for the first, 0.937 for the second.

Going from A22C G28A to A22C G28C, the self-cleavage rises from 0.862 to 0.955.

First: A22U G28A
Second: A22U G28U
The self-cleavage of the first is lower: 0.485 for the first, 0.736 for the second.

First: C21G A23G
Second: C21G A23U
The self-cleavage of the first is higher: 0.11 for the first, 0.032 for the second.

Compared with C21G A23C, C21U U37A is higher in self-cleavage: 0.0558 for the first, 0.0811 for the second.

Compared with A23C C26U, A22G C27A is higher in self-cleavage: 0.0813 for the first, 0.0974 for the second.

First: C21G U31G
Second: A22U C26U
The self-cleavage of the first is lower: 0.0712 for the first, 0.103 for the second.

Compared with A22U C26A, C21G C26U is lower in self-cleavage: 0.11 for the first, 0.0515 for the second.

First: C21G C26A
Second: A22C A35U
The self-cleavage of the first is lower: 0.0789 for the first, 0.962 for the second.

First: A22U G45A
Second: C21G G36C
The self-cleavage of the first is higher: 0.678 for the first, 0.0148 for the second.

Going from A22U G47A to A22U G47C, the self-cleavage falls from 0.582 to 0.216.

Compared with C21G C25G, C21G C25U is lower in self-cleavage: 0.0701 for the first, 0.0625 for the second.

Going from A23C G24C to C21A G28A, the self-cleavage falls from 0.124 to 0.0792.

Compared with C20U G41C, C21U G41C is higher in self-cleavage: 0.133 for the first, 0.434 for the second.

Compared with C21U G41A, C21U G41U is lower in self-cleavage: 0.641 for the first, 0.136 for the second.

Compared with C20U U31A, C21U C46A is lower in self-cleavage: 0.68 for the first, 0.107 for the second.

Compared with C21U C46G, A22G A34U is lower in self-cleavage: 0.135 for the first, 0.096 for the second.

First: A22G A34G
Second: A23C C25U
The self-cleavage of the first is lower: 0.0987 for the first, 0.116 for the second.

First: C21G A35C
Second: C21G A35U
The self-cleavage of the first is lower: 0.0454 for the first, 0.0529 for the second.

First: C21G A35G
Second: C20U G43C
The self-cleavage of the first is lower: 0.0519 for the first, 0.125 for the second.

First: A22G G42U
Second: C21G A32U
The self-cleavage of the first is lower: 0.0653 for the first, 0.196 for the second.

Compared with A22U, A22G is lower in self-cleavage: 0.879 for the first, 0.368 for the second.

Going from A22C to C20U G36U, the self-cleavage falls from 1.02 to 0.0929.

Compared with C20U G36C, A22C A40G is lower in self-cleavage: 0.135 for the first, 0.128 for the second.

Going from C20U G39C to C20U G39U, the self-cleavage rises from 0.0926 to 0.15.

First: A22U C46U
Second: C20U G47A
The self-cleavage of the first is lower: 0.773 for the first, 0.859 for the second.

Going from C21A G29C to C21A G29A, the self-cleavage rises from 0.0813 to 0.132.

First: A22G A32U
Second: A22G A32C
The self-cleavage of the first is lower: 0.278 for the first, 0.35 for the second.

First: C21U G29U
Second: C20U A23C
The self-cleavage of the first is higher: 0.0831 for the first, 0.0767 for the second.

Compared with C20U A23G, A22C G29C is higher in self-cleavage: 0.121 for the first, 0.929 for the second.

Going from C21G G47C to A22U G38C, the self-cleavage rises from 0.0639 to 0.779.

Compared with A22U G24A, C21A A34U is higher in self-cleavage: 0.0776 for the first, 0.102 for the second.

Compared with C20U A35G, C20G G47A is lower in self-cleavage: 0.664 for the first, 0.111 for the second.

First: C20G G47U
Second: C20G G47C
The self-cleavage of the first is lower: 0.131 for the first, 0.133 for the second.

Going from C20G G48C to A22C G41U, the self-cleavage rises from 0.157 to 0.366.

Compared with A22C G41A, A23C A34G is lower in self-cleavage: 0.326 for the first, 0.135 for the second.

Going from A22C A30U to C20U G29A, the self-cleavage falls from 1 to 0.81.

First: A23G A30U
Second: A23G A30G
The self-cleavage of the first is lower: 0.587 for the first, 0.647 for the second.

Going from C21G C27U to C21G C27G, the self-cleavage rises from 0.0651 to 0.138.

Going from A22U U31C to C20G U37C, the self-cleavage falls from 0.935 to 0.0961.

Compared with C20G U37A, A22C G47A is higher in self-cleavage: 0.0911 for the first, 0.909 for the second.

First: A22C G47U
Second: C21U C26A
The self-cleavage of the first is higher: 0.917 for the first, 0.0796 for the second.

Compared with C21G A33U, C21A G47A is higher in self-cleavage: 0.0662 for the first, 0.135 for the second.

Going from C21U A23U to C21U A23C, the self-cleavage rises from 0.0638 to 0.0826.

Compared with C21U A23G, A22C C46A is higher in self-cleavage: 0.0801 for the first, 1.02 for the second.

Compared with A22C C46G, A22C C46U is lower in self-cleavage: 0.869 for the first, 0.832 for the second.

Compared with C20U A32U, C20U A32C is lower in self-cleavage: 0.887 for the first, 0.758 for the second.

With C20U A32G the self-cleavage was 0.82.
